Source: patent US20130101549A1 (Biogen, published 2013)
Values joined by “and” are separate entries in the source; they are usually repeats but may differ in a detail not shown here. Equal entries are not always repeated.

Assays:
[1] = target: Soluble human LTBR (shuLTBR) (human, UniProt P36941 31-227, limits assumed); test: SEC / light scattering
Description: Soluble human LTBR (shuLTBR) was prepared by limited proteolytic digestion of human LTBR-Ig and purified by chromatography on protein A Sepharose and Fractogel TMAE. […] Controls with each protein were also included. The samples were analyzed by SEC using a […] column (Phenomenex) in PBS with a Waters Alliance HPLC instrument.

human LTβR-Ig [2] = target: T1, human LTβR-Ig (human, UniProt P36941 31-227); test: ELISA, huLTBR-Ig coated at 0.2 ug/ml, HRP goat anti-human kappa; the number is C of the printed 4-P fit (A 0.057, B 0.9, D 1.548, R^2 0.998); Fab-Light is BIIB71F10-132 by paragraph 502
T1 construct: Expressed and purified in house; also called hLTbR-Ig; human LTBR-Ig
Description: (§1) Human and murine ErbB2-Fc were obtained from R&D Systems. Wells of 96-well plates were coated with 2 ug/ml or 0.2 ug/ml of human or murine HER2-Fc by incubation overnight at 4-8° C. with either of these six proteins (80 ul/well of a 0.2 or 2 ug/ml solution in PBS). Wells were emptied, filled completely with a solution of PBS with 1% BSA (blocking buffer) and incubated at room temperature for 1 hour. Wells were emptied, washed twice PBS containing 0.05% Tween 20 (PBST) and filled with the samples (80 ul/well of 3× dilution series of the standard and supernatants in blocking buffer) prepared in another 96-well plate. After a 2-hour incubation at room temperature, the wells were emptied, washed three times with PBST and filled with a solution of HRP-conjugated goat pAbs anti-human kappa chain (80 ul/well of a 2000-fold dilution in blocking buffer). After 1-hour incubation, the wells were emptied and filled with a solution of HRP substrate prepared freshly. The color was left to develop for 3 minutes and was stopped by addition of an equal volume of 1N H₂SO₄. Absorbance was measured at 450 nm using a Plate Reader (SpectraMax, Molecular Devices). The data was processed and graphs were created using SoftMax Pro software.
(§2) Human and murine LTBR-Ig were expressed and purified in house.

human HVEM-Ig [3] = target: T2, human HVEM-Ig (human, UniProt Q92956 39-202); test: FACS (HVEM column of Table 2; format not told there)
T2 construct: Expressed and purified in house; also called HVEM-Fc; Herpes virus entry mediator-Ig
T2 sequence (looked up): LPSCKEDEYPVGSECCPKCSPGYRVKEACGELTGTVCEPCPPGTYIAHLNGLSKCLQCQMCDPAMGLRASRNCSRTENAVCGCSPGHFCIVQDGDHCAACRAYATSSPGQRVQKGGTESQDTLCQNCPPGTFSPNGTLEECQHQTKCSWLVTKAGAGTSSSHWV

human LTβR-Ig [4] = target: T1, human LTβR-Ig; test: FACS (LTbR column of Table 2; format not told there)
human HER2-Fc [5] = target: T3, human HER2-Fc (human, UniProt P04626 23-652); test: Octet biolayer interferometry, receptor-Fc on anti-human Fc biosensor, culture supernatant
T3 construct: Bought from R&D Systems: homodimeric fusion of the HER2 extracellular domain and human IgG1 Fc; also called human ErbB2-Fc; rhErbB2-Fc; not shown: Fc fragment of human IgG1
Description: (§3) Anti-human Fc-specific biosensors (Fortebio SKU 18-0001) were hydrated in OB (1×PBS supplemented with 1 mg/ml BSA, 0.05% NaN₃, and 0.02% TWEEN 20) for at least five minutes prior to assays. For each assay, the respective receptor—Fc fusion was diluted to 10 μg/ml in OB and allowed to bind to the biosensors for five minutes. The sensors were then incubated in the indicated culture supernatant for an additional five minutes, and subsequently transferred to fresh wells […].

human HVEM-Ig [6] = target: T2, human HVEM-Ig; test: as above
Description: as §3

human LTβR-Ig [7] = target: T1, human LTβR-Ig; test: as above
Description: as §3

human HER2-Fc [8] = target: T3, human HER2-Fc; test: ELISA on coated HER2-Fc
Description: as §1

human LTβR-Ig [9] = target: T1, human LTβR-Ig; test: ELISA, huLTBR-Ig coated at 2 ug/ml, HRP goat anti-human kappa; the number is C of the printed 4-P fit (A 0.025, B 0.807, D 1.574, R^2 0.998); Fab-Light is BIIB71F10-132 by paragraph 502
Description: as §1, §2

murine HVEM-Ig = target: T4, murine HVEM-Ig (mouse, UniProt Q80WM9 39-210); test: ELISA, muHVEM-Ig coated at 0.2 ug/ml, HRP goat anti-human kappa; the number is C of the printed 4-P fit (A 0.045, B 0.716, D 1.298, R^2 0.996); Fab-Light is BIIB71F10-132 by paragraph 503
T4 construct: Expressed and purified in house
T4 sequence (looked up): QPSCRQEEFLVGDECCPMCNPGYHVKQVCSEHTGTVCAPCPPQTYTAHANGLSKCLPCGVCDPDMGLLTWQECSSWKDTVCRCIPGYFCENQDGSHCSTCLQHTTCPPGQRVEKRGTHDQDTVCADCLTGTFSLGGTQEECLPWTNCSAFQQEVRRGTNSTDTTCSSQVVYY
Description: as §1
Human and murine HVEM-Ig were expressed and purified in house.

human LTBR-mIgG fusion = target: T5, human LTBR-mIgG fusion; test: sandwich ELISA after incubation at 200 ng/ml in human serum (cold or 37°C overnight): HER2-Fc on the plate, human LTBR-mIgG, HRP anti-mouse IgG; the signal needs both bindings at once
T5 construct: kept apart from m25 (human Fc); not shown: exact end of the LTBR part
Description: An ELISA assay was developed to detect LIGHT-Ab fusions after incubation with human sera. Briefly, 200 ng/mL of LIGHT-Ab fusions were incubated overnight in human serum at 37° C. The serum was assayed in sandwich ELISA as follows. HER2-Fc was immobilized to a solid surface, and was used to capture the LIGHT-Ab fusions. The serum incubated fusion proteins were added to the solid surface. Detection was effected using a human LTBR-mIgG fusion to bind to the LIGHT moiety of the fusion. Horseradish peroxidase (HRP) labeled anti-mouse IgG was used to detect bound LIGHT-Ab fusions.

B1: 71F10 Fab-hLIGHT fusion with the (G4S)4 linker (BIIB71F10-132) (other)
heavy: EVQLLESGGGLVQPGGSLRLSCAASGFTFSSYGMVWVRQAPGKGLEWVSSISSSGGLTWYADSVKGRFTISRDNSKNTLYLQMNSLRAEDTAVYYCASPPGIAVARDYWGQGTLVTVSSASTKGPSVFPLAPSSKSTSGGTAALGCLVKDYFPEPVTVSWNSGALTSGVHTFPAVLQSSGLYSLSSVVTVPSSSLGTQTYICNVNHKPSNTKVDKKVEPKSCDKGGGGSGGGGSGGGGSGGGGSNPAAHLTGANSSLTGSGGPLLWETQLGLAFLRGLSYHDGALVVTKAGYYYIYSKVQLGGVGCPLGLASTITHGLYKRTPRYPEELELLVSQQSPCGRATSSSRVWWDSSFLGGVVHLEAGEEVVVRVLDERLVRLRDGTRSYFGAFMV
light: DIQMTQSPSSLSASVGDRVTITCRASQGISNYLAWYQQKPGKVPKLLIYAASTLQSGVPSRFSGSGSGTDFTLTISSLQPEDVATYYCQKYNSALLTFGGGTKVEIKRTVAAPSVFIFPPSDEQLKSGTASVVCLLNNFYPREAKVQWKVDNALQSGNSQESVTEQDSKDSTYSLSSTLTLSKADYEKHKVYACEVTHQGLSSPVTKSFNRGEC
notes: Trimer of Fab-LIGHT units; also called 71F10 Fab-(G4S)4-LIGHT
stoichiometry (shuLTBR for 1 Fab-Light trimer) [1]: 2 shuLTBR per trimer and 3 shuLTBR per trimer
EC50 (human LTβR-Ig [2]): 1.91 ng/mL
EC50 (human HVEM-Ig [3]): 0.5 nM
EC50 (human LTβR-Ig [4]): 0.2 nM
koff (human HER2-Fc [5]): 0.000117 s⁻¹
koff (human HVEM-Ig [6]): 0.00016 s⁻¹
koff (human LTβR-Ig [7]): 0.000197 s⁻¹
EC50 (human HER2-Fc [8]): 0.05 nM
EC50 (human LTβR-Ig [9]): 2.69 ng/mL
EC50 (murine HVEM-Ig): 26.3 ng/mL
binding result (human LTBR-mIgG fusion): binds
